The results in this text go back to article PMC9719539 (2022).

In general, Kd refers to the equilibrium constant for the complex coming apart.

First the molecules themselves.
B1: integrin αVβ3 on intact cells (receptor)
chain 1: FNLDVDSPAEYSGPEGSYFGFAVDFFVPSASSRMFLLVGAPKANTTQPGIVEGGQVLKCDWSSTRRCQPIEFDATGNRDYAKDDPLEFKSHQWFGASVRSKQDKILACAPLYHWRTEMKQEREPVGTCFLQDGTKTVEYAPCRSQDIDADGQGFCQGGFSIDFTKADRVLLGGPGSFYWQGQLISDQVAEIVSKYDPNVYSIKYNNQLATRTAQAIFDDSYLGYSVAVGDFNGDGIDDFVSGVPRAARTLGMVYIYDGKNMSSLYNFTGEQMAAYFGFSVAATDINGDDYADVFIGAPLFMDRGSDGKLQEVGQVSVSLQRASGDFQTTKLNGFEVFARFGSAIAPLGDLDQDGFNDIAIAAPYGGEDKKGIVYIFNGRSTGLNAVPSQILEGQWAARSMPPSFGYSMKGATDIDKNGYPDLIVGAFGVDRAILYRARPVITVNAGLEVYPSILNQDNKTCSLPGTALKVSCFNVRFCLKADGKGVLPRKLNFQVELLLDKLKQKGAIRRALFLYSRSPSHSKNMTISRGGLMQCEELIAYLRDESEFRDKLTPITIFMEYRLDYRTAADTTGLQPILNQFTPANISRQAHILLDCGEDNVCKPKLEVSVDSDQKKIYIGDDNPLTLIVKAQNQGEGAYEAELIVSIPLQADFIGVVRNNEALARLSCAFKTENQTRQVVCDLGNPMKAGTQLLAGLRFSVHQQSEMDTSVKFDLQIQSSNLFDKVSPVVSHKVDLAVLAAVEIRGVSSPDHVFLPIPNWEHKENPETEEDVGPVVQHIYELRNNGPSSFSKAMLHLQWPYKYNNNTLLYILHYDIDGPMNCTSDMEINPLRIKISSLQTTEKNDTVAGQGERDHLITKRDLALSEGDIHTLGCGVAQCLKIVCQVGRLDRGKSAILYVKSLLWTETFMNKENQNHSYSLKSSASFNVIEFPYKNLPIEDITNSTLVTTNVTWGIQPAPMPVPVWVIILAVLAGLLLLAVLVFVMYRMGFFKRVRPPQEEQEREQLQPHENGEGNSET
chain 2: GPNICTTRGVSSCQQCLAVSPMCAWCSDEALPLGSPRCDLKENLLKDNCAPESIEFPVSEARVLEDRPLSDKGSGDSSQVTQVSPQRIALRLRPDDSKNFSIQVRQVEDYPVDIYYLMDLSYSMKDDLWSIQNLGTKLATQMRKLTSNLRIGFGAFVDKPVSPYMYISPPEALENPCYDMKTTCLPMFGYKHVLTLTDQVTRFNEEVKKQSVSRNRDAPEGGFDAIMQATVCDEKIGWRNDASHLLVFTTDAKTHIALDGRLAGIVQPNDGQCHVGSDNHYSASTTMDYPSLGLMTEKLSQKNINLIFAVTENVVNLYQNYSELIPGTTVGVLSMDSSNVLQLIVDAYGKIRSKVELEVRDLPEELSLSFNATCLNNEVIPGLKSCMGLKIGDTVSFSIEAKVRGCPQEKEKSFTIKPVGFKDSLIVQVTFDCDCACQAQAEPNSHRCNNGNGTFECGVCRCGPGWLGSQCECSEEDYRPSQQDECSPREGQPVCSQRGECLCGQCVCHSSDFGKITGKYCECDDFSCVRYKGEMCSGHGQCSCGDCLCDSDWTGYYCNCTTRTDTCMSSNGLLCSGRGKCECGSCVCIQPGSYGDTCEKCPTCPDACTFKKECVECKKFDRGALHDENTCNRYCRDEIESVKELKDTGKDAVNCTYKNEDDCVVRFQYYEDSSGKSILYVVEEPECPKGPDILVVLLSVMGAILLIGLAALLIWKLLITIHDRKEFAKFEEERARAKWDTANNPLYKEATSTFTNITYRGT
B2: integrin αVβ5 on intact cells (receptor)
chain 1: B1 chain 1
chain 2: GLNICTSGSATSCEECLLIHPKCAWCSKEDFGSPRSITSRCDLRANLVKNGCGGEIESPASSFHVLRSLPLSSKGSGSAGWDVIQMTPQEIAVNLRPGDKTTFQLQVRQVEDYPVDLYYLMDLSLSMKDDLDNIRSLGTKLAEEMRKLTSNFRLGFGSFVDKDISPFSYTAPRYQTNPCIGYKLFPNCVPSFGFRHLLPLTDRVDSFNEEVRKQRVSRNRDAPEGGFDAVLQAAVCKEKIGWRKDALHLLVFTTDDVPHIALDGKLGGLVQPHDGQCHLNEANEYTASNQMDYPSLALLGEKLAENNINLIFAVTKNHYMLYKNFTALIPGTTVEILDGDSKNIIQLIINAYNSIRSKVELSVWDQPEDLNLFFTATCQDGVSYPGQRKCEGLKIGDTASFEVSLEARSCPSRHTEHVFALRPVGFRDSLEVGVTYNCTCGCSVGLEPNSARCNGSGTYVCGLCECSPGYLGTRCECQDGENQSVYQNLCREAEGKPLCSGRGDCSCNQCSCFESEFGKIYGPFCECDNFSCARNKGVLCSGHGECHCGECKCHAGYIGDNCNCSTDISTCRGRDGQICSERGHCLCGQCQCTEPGAFGEMCEKCPTCPDACSTKRDCVECLLLHSGKPDNQTCHSLCRDEVITWVDTIVKDDQEAVLCFYKTAKDCVMMFTYVELPSGKSNLTVLREPECGNTPNAMTILLAVVGSILLVGLALLAIWKLLVTIHDRREFAKFQSERSRARYEMASNPLYRKPISTHTVDFTFNKFNKSYNGTVD
B3: Biogen-αVβ1.5 Fab (Fab, V domains shown)
VH: EVQLVESGGGVVQPGRSLRLSCAASGFTFKYYGMHWVRQAPGKGLEWVASIWYDGSNKKYADSVKGRFTISRDNSKNTLYLQMNSLRAEDTAVYYCARGGPTRGDGTRVYYYGMDVWGQGTTVTVSS
VL: EIVMTQSPATLSVSPGERATLSCRASQSVSSNLAWYQQKPGQAPRLLIYSASTRATGIPARFSGSGSGTEFTLTISSLQSEDFAVYYCQQYYHHPFTFGGGTKVEIK

Like-named read-outs stand apart in the source and are kept apart here. Positions of bridges follow the written chain, without caps; N, C: chain ends. Non-standard residues stand in square brackets, D forms with d. No end group written: not given here.

Test [1] deals with IPI-αVβ5.9. Kind of test: FACS; L15 medium. Background: In flow cytometry, cells or beads pass a laser one at a time.
Test [2] deals with IPI-αVβ3.13. Kind of test: FACS; L15 medium.
The target of test [3] is IPI-αVβ5.9. The test can be described thus: FACS; L15 + 1 mM Mn2+.
Test [4] addresses IPI-αVβ3.13. The test can be described thus: FACS; L15 + 1 mM Mn2+.
The target in test [5] is B1. Kind of test: FACS.
Test [6] has as its target integrin αVβ1 on intact cells (human, UniProt P06756 31-1048; P05556 21-798). The test can be described thus: FACS.
Test [7] addresses T1, integrin α5β1 on intact cells (human, UniProt P08648 42-1049; P05556 21-798). Kind of test: FACS.
In test [8] the target is T1, integrin α5β1 on intact cells. Kind of test: FACS. The source holds these as a separate data set.

T1 sequence (P08648 42-1049, chain 1 of 2): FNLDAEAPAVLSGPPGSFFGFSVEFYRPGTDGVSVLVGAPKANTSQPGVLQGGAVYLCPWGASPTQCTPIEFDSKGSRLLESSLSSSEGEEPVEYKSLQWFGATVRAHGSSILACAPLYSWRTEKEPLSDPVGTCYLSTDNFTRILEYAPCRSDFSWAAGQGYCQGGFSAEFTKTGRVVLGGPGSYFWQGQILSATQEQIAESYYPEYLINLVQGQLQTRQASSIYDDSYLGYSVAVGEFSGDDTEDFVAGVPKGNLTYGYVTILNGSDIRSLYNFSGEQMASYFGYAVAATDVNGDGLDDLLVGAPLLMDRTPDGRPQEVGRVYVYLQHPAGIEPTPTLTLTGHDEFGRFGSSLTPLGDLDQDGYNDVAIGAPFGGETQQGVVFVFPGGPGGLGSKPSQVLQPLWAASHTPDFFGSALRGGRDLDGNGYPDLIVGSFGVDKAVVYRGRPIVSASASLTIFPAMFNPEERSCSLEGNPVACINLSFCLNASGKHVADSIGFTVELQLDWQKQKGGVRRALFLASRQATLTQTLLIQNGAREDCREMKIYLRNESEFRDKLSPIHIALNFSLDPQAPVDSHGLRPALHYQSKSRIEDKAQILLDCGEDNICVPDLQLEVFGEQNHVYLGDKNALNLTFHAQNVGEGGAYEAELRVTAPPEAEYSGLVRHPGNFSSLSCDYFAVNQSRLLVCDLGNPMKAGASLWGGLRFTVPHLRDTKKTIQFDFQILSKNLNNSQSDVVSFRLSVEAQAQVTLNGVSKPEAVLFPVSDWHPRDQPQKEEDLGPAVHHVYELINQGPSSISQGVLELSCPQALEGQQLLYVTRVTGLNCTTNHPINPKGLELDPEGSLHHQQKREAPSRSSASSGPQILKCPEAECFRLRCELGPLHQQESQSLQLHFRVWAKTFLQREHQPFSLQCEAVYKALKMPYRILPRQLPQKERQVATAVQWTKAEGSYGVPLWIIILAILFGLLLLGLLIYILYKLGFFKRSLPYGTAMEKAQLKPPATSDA
T1 sequence (P05556 21-798, chain 2 of 2): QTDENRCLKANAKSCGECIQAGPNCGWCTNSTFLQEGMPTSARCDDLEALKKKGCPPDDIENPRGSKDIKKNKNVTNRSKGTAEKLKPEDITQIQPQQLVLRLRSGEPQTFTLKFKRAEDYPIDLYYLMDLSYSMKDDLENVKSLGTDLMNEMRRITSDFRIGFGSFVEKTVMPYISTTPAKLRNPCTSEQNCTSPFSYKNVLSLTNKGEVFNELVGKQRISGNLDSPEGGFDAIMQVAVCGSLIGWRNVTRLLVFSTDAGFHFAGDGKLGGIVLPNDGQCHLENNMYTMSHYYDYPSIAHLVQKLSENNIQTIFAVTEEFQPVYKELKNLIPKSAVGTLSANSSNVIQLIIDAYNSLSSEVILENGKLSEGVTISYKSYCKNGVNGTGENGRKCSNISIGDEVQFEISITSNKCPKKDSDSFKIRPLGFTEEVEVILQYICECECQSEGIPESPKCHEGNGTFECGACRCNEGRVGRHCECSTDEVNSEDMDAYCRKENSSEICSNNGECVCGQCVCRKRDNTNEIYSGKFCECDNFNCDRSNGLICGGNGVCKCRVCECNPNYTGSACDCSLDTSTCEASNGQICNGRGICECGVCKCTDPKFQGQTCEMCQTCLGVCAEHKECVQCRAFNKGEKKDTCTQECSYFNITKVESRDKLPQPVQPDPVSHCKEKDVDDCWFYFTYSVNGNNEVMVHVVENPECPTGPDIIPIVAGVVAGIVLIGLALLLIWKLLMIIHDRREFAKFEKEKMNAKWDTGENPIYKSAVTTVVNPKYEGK
Chain of integrin αVβ1 on intact cells (P05556 21-798, one chain of several): as the sequence (P05556 21-798, chain 2 of 2) above

Turning to B1, the Kd turned out to be 10000 nM with IPI-αVβ5.9 [1], 56 nM with IPI-αVβ3.13 [2], 16000 nM with IPI-αVβ5.9 [3] and 23 nM with IPI-αVβ3.13 [4].

For the molecule B2, the dissociation constant (Kd) worked out at 43 nM with IPI-αVβ5.9 [1], 24 nM in the test with IPI-αVβ5.9 [3] and 50000 nM with IPI-αVβ3.13 [4].

For B3, the figures for the Kd in test [5] and in test [6] were 78000 nM and 24 nM, respectively.

In test [7], ACRGDGWCGK (disulfide 2-8 (inferred)) [cyclic-ACRGDGWCGK] gave a dissociation constant (Kd) of 3700 nM.

In test [8], cyclo(RGD[dF]K) [cyclo[Arg-Gly-Asp-D-Phe-Lys] (cRGDfK)] gave an equilibrium dissociation constant (Kd) of 86 nM.
